Consider 14 molecules from US20120077731A1 (Ablynx, published 2012).

The term IC50 denotes the concentration at which inhibition is half-maximal. As usually defined, the Kd is a measure of binding affinity in units of concentration. Read a high Kd as lower affinity. In general, koff refers to a measure of how fast the partners let go of each other. Usually kon stands for the rate constant with which the complex forms. Read a low kon as slower complex formation.

In experiment [1] the target is T1, Human soluble IL-6R (human, UniProt P08887 20-358).
T1 construct: Soluble recombinant form; biotinylated in some assays; also called hIL-6R; human IL-6R
T1 sequence (looked up): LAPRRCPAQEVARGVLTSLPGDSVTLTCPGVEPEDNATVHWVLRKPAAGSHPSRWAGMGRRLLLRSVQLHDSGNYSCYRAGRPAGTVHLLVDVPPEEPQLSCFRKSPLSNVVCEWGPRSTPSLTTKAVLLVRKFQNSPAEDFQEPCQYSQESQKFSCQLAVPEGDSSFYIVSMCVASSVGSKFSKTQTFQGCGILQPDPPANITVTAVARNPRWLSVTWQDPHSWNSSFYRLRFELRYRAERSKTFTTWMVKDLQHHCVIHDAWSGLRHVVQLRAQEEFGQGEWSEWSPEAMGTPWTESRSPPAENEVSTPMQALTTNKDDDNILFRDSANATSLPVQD
The experiment is described as follows: Alphascreen IL-6/IL-6R competition (IL-6R 0.3 nM, bio-IL-6 3 nM); row EC50 of the fit table, axis [competitor], M; blocked ligand IL-6. Background: In Alpha technology, singlet oxygen from a donor bead excites a nearby acceptor bead.

For experiment [2], the target named is T1, Human soluble IL-6R. The experiment is described as follows: Biacore, binding to IL-6R. Background: Surface plasmon resonance follows binding to a sensor surface in real time, without labels.
Experiment [3] concerns the target T1, Human soluble IL-6R. The experiment is described as follows: SPR Biacore 3000, human IL-6R amine-coupled to CM5.
Experimental: Remaining reactive groups were inactivated. Nanobody binding was assessed at various concentrations ranging from 0.5 to 50 nM. Each sample was injected for 4 min at a flow rate of 45 μl/min to allow for binding to chip-bound antigen. Next, binding buffer without Nanobody was sent over the chip at the same flow rate to allow for dissociation of bound Nanobody.
In experiment [4] the target is T2, Human membrane IL-6R on cells (human, UniProt P08887 20-468).
T2 sequence (looked up): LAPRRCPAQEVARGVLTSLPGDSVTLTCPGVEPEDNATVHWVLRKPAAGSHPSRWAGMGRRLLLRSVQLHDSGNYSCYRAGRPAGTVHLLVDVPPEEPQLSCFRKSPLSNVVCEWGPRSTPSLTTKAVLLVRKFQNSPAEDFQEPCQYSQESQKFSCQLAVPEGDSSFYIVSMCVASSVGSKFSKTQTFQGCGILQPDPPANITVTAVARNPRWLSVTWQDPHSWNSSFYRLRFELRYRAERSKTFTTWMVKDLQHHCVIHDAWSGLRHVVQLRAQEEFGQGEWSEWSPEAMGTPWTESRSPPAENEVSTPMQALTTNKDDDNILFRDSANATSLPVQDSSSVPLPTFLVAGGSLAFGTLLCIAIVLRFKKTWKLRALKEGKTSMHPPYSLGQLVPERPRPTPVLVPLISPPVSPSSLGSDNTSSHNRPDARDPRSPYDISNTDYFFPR
The experiment is described as follows: cell-based or functional assay.

In experiment [5] the target is T1, Human soluble IL-6R. The experiment is described as follows: Alphascreen IL-6/IL-6R competition with purified Nanobody; row EC50 of the table, axis [inhibitor], M; blocked ligand IL-6.
Experiment [6] addresses T3, Human plasma sIL-6R (human, UniProt P08887 20-355, limits assumed).
T3 construct: also called plasma-derived human IL-6R
T3 sequence (looked up): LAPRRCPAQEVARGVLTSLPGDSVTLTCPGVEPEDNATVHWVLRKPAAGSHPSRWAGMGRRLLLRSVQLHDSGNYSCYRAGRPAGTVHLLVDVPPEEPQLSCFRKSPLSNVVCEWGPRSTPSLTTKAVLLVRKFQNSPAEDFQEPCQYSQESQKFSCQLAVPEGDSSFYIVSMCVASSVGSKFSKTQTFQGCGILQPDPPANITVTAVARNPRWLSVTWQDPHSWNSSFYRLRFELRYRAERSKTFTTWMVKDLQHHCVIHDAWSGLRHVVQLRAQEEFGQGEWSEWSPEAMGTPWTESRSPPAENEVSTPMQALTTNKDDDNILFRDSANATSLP
Put plainly: plasma potency assay, human plasma ([IL6R]: ~0.4 nM, [IL6]: 2.4 nM printed); sIL-6R captured on BN-12, bound IL-6 detected; blocked ligand IL-6.

The target of experiment [7] is T3, Human plasma sIL-6R. Put plainly: plasma potency assay, human plasma, 42 nM IL6; sIL-6R captured on BN-12, bound IL-6 detected; blocked ligand IL-6.
The target of experiment [8] is T4, Cyno plasma sIL-6R (cynomolgus monkey, UniProt A0A2K5WN54 60-396).
T4 construct: also called cynomolgus sIL-6R
T4 sequence: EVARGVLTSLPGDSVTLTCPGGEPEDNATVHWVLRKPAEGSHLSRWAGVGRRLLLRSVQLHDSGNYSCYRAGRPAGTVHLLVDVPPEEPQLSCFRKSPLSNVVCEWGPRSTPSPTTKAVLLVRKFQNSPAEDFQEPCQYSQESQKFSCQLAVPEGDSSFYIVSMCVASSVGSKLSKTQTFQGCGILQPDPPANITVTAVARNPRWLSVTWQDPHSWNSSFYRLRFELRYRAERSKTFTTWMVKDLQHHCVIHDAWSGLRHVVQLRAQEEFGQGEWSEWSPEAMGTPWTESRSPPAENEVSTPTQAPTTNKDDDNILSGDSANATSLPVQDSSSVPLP
The experiment is described as follows: plasma potency assay, cyno plasma ([IL6R]: ~0.4 nM, [IL6]: 2.4 nM printed); sIL-6R captured on BN-12, bound IL-6 detected; blocked ligand IL-6.

Experiment [9] addresses T1, Human soluble IL-6R. Put plainly: SPR (Biacore), binding curves at several concentrations of purified Nanobody on IL-6R.
Experiment [10] deals with T3, Human plasma sIL-6R. The experiment is described as follows: plasma potency assay, human plasma, 42 nM IL6; blocked ligand IL-6.
Experimental: (§1) All 5 affinity matured Nanobodies and the sequence optimized Nanobody were also tested in a plasma potency assay. […] TMB was used as substrate.
In experiment [11] the target is T3, Human plasma sIL-6R. Put plainly: plasma potency assay, human plasma, 2.4 nM IL6; blocked ligand IL-6.
Experimental: as §1
Experiment [12] concerns the target T4, Cyno plasma sIL-6R. Put plainly: plasma potency assay, cyno plasma, 2.4 nM IL6; blocked ligand IL-6.
Experimental: as §1
In experiment [13] the target is T1, Human soluble IL-6R. The experiment is described as follows: Biacore off-rate, periplasmic extracts.

B1: IL6R71 (VHH)
VHH: EVQLVESGGGLVQPGGSLRLSCAASGFTFDDYDIGWFRQAPGKGREGVSGISSSDGNTYYADSVKGRFTISSDNAKNTVYLQMNSLRPEDTAVYYCAAEPPDSSWYLDGSPEFFKYWGQGTLVTVSS
On to B1, for which the IC50 in experiment [1] amounted to 0.153 nM. In [2], this molecule yielded a Kd of 0.2 nM, a koff of 0.000153 s⁻¹ and a kon of 703000 M⁻¹ s⁻¹.

B2: IL6R75 (VHH)
VHH: EVQLVESGGGLVQPGGSLRLSCAASGFTFSDYDIGWFRQAPGKGREGVSGISSSDGNTYYADSVKGRFTISRDNAKNTLYLQMNSLRPEDTAVYYCAAEPPDSSWYLDGSPEFFKYWGQGTLVTVSS
notes: also called ILR7.5; not shown: tag (IL6R201 is called the tagless version of IL6R75)
In experiment [3], B2 showed a Kd of 0.1 nM, a koff of 0.0001 s⁻¹ and a kon of 1e+06 M⁻¹ s⁻¹. For the same molecule, the “IC50 values (nM), XG-1 assay” value in experiment [4] was found to be 0.04 nM. In addition, the IC50 in [5] came out at 0.0432 nM.

B3: IL6R73 (VHH)
VHH: EVQLVESGGGLVQPGGSLRLSCAASGFTFDDYDIGWFRQAPGKGREGVSGISSSDGNTYYADSVKGRFTISRDNAKNTVYLQMNSLRPEDTAVYYCAAEPPDSSWYLDGSPEFFKYWGQGTLVTVSS
In the case of B3, the IC50 in experiment [1] was 0.0916 nM. Also, in [2], binding was characterised by a dissociation constant (Kd) of 0.3 nM, the koff is 0.000233 s⁻¹ and the kon is 698000 M⁻¹ s⁻¹.

B4: IL6R72 (VHH)
VHH: EVQLVESGGGLVQPGGSLRLSCAASGFTFSDYDIGWFRQAPGKGREGVSGISSSDGNTYYADSVKGRFTISSDNAKNTVYLQMNSLRPEDTAVYYCAAEPPDSSWYLDGSPEFFKYWGQGTLVTVSS
B4: the IC50 in experiment [1] was found to be 0.161 nM. In experiment [2], this molecule registered a Kd of 0.3 nM, a koff of 0.00018 s⁻¹ and a kon of 543000 M⁻¹ s⁻¹.

B5: PMP7C4 (VHH)
VHH: EVQLVESGGGLVQPGGSLRLSCAASGTTFRINVMAWYRQAPGKGRELVAGIITNGSTSYADSVKGRFTISRDNAKNTLYLQMNSLRPEDTAVYYCAFVTTNSDYDLGRDYWGQGTLVTVSS
notes: not shown: c-myc and (His)6 tags
As to B5, the IC50 in [6] amounted to 0.21 nM; in experiment [7] it was 0.9 nM; in experiment [8], 0.08 nM. The molecule also gave a Kd in experiment [9] of 0.34 nM.

B6: PMP7G8 (VHH)
VHH: EVQLVESGGGLVQPGGSLRLSCAASGSTFRINVMAWYRQAPGKGRELVAGVINDGSTTYADSVKGRFTISRDNAKNTLYLQMNSLRPEDTAVYYCAFVTTNSDYDLGRDYWGQGTLVTVSS
notes: expressed with c-myc and (His)6 tags
On to B6, for which the figures for the half-maximal inhibitory concentration (IC50) in experiment [6], in [7] and in experiment [8] were 0.34 nM, 3.5 nM and 0.14 nM, respectively. In addition, binding in experiment [9] was put at a Kd of 0.95 nM.

B7: PMP7D6 (VHH)
VHH: EVQLVESGGGLVQPGGSLRLSCAASGSIFRVNVMAWYRQAPGKGRELVAAVINGGTTTYADSVKGRFTISRDNAKNTLYLQMNSLRPEDTAVYYCAFVTTNSDYDLGRDYWGQGTLVTVSS
notes: as for B5
Consider B7, for which the half-inhibitory concentration (IC50) came to 0.19 nM in experiment [6]; 0.8 nM in experiment [7]; 0.95 nM in experiment [10]; 0.09 nM in experiment [8]; 0.25 nM in experiment [11]; 0.13 nM in experiment [12]. Moreover, the dissociation constant (Kd) in [9] is 0.42 nM.

B8: PMP7F4 (VHH)
VHH: EVQLVESGGGLVQPGGSLRLSCAASGTTFKVNVMAWYRQAPGKGRELVAGIINGGSTTYADSVKGRFTISRDNAKNTLYLQMNSLRPEDTAVYYCAFVTTNSDYDLGRDYWGQGTLVTVSS
For the molecule B8, the IC50 came to 0.24 nM in [6], 1.2 nM in experiment [7] and 0.09 nM in experiment [8]. In addition, the Kd in experiment [9] came to 0.48 nM.

B9: PMP7G7 (VHH)
VHH: EVQLVESGGGLVQPGGSLRLSCAASGTTFKINIMAWYRQAPGKGRELVAGVITGGNTTYADSVKGRFTISRDNAKNTLYLQMNSLRPEDTAVYYCAFVTTNSDYDLGRDYWGQGTLVTVSS
notes: as for B6
As to B9, the IC50 is 0.22 nM in [6], 1.5 nM in [7] and 0.11 nM in experiment [8]. In [9], this molecule yielded a Kd of 0.56 nM.

B10: IL6R86 (VHH)
VHH: EVQLVESGGGLVQPGGSLRLSCAASGFTFDDYGMSWVRQAPGRALEWVSAISWNGNNTYYTESMKGRFTISRDNAKNTLYLQMNSLRPEDTAVYYCVKGSTAIVGVPPTYPDEYDYWGQGTLVTVSS
notes: IL6R13 variant, tested as periplasmic extract
For B10, in [13], the koff was 0.0017 s⁻¹.

B11: IL6R89 (VHH)
VHH: EVQLVESGGGLVQPGGSLRLSCAASGFTFDDYGMSWVRQAPGRGTEWVSAISWNGNNTYYTESMKGRFTISRDNAKNTLYLQMNSLRPEDTAVYYCVKGSTAIVGVPPTYPDEYDYWGQGTLVTVSS
notes: as for B10
In experiment [13], B11 had a koff of 0.00019 s⁻¹.

B12: IL6R87 (VHH)
VHH: EVQLVESGGGLVQPGGSLRLSCAASGFTFDDYGMSWVRQAPGKATEWVSAISWNGNNTYYTESMKGRFTISRDNAKNTLYLQMNSLRPEDTAVYYCVKGSTAIVGVPPTYPDEYDYWGQGTLVTVSS
notes: as for B10
In the case of B12, the dissociation rate constant (koff) in experiment [13] was found to be 0.00011 s⁻¹.

B13: IL6R90 (VHH)
VHH: EVQLVESGGGLVQPGGSLRLSCAASGFTFDDYGMSWVRQAPGKALEWVSAISWNGNNTYYTESMKGRFTISRDNAKNTLYLQMNSLRPEDTAVYYCVKGSTAIVGVPPTYPDEYDYWGQGTLVTVSS
notes: as for B10
Regarding B13, the koff in experiment [13] turned out to be 0.0019 s⁻¹.

B14: IL6R88 (VHH)
VHH: EVQLVESGGGLVQPGGSLRLSCAASGFTFDDYGMSWVRQAPGKGTEWVSAISWNGNNTYYTESMKGRFTISRDNAKNTLYLQMNSLRPEDTAVYYCVKGSTAIVGVPPTYPDEYDYWGQGTLVTVSS
notes: tested as periplasmic extract and purified
On to B14, for which the koff in [13] is 0.00026 s⁻¹. In [3], binding was characterised by a dissociation constant (Kd) of 0.9 nM, the koff worked out at 0.000213 s⁻¹ and the kon turned out to be 230000 M⁻¹ s⁻¹. The “IC50 values (nM), XG-1 assay” value in experiment [4] was found to be 3.3 nM. The same molecule returned an IC50 in experiment [5] of 0.0727 nM.
